What follows are sequences tested on Bacillus subtilis DB104 (SP-AmyQ fusion secretion) (assay: AmyQ secretion efficiency, weighted average sort bin (1 = best secretion, 10 = worst) (bin number (weighted average, 1-10)); higher = lower secretion efficiency).
How it was run: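 B. subtilis DB104 library expressing mature AmyQ fused to designed signal peptides (amyE-integrated) was encapsulated at about 0.3 cells per ~65 nL alginate bead with fluorescein-starch, grown about 13 h at room temperature and nile red stained. Occupied beads were sorted by large-particle flow cytometry into 10 equally populated bins by green/red fluorescence ratio, and each bin's amplicons were Illumina-sequenced. Secretion score is the read-frequency-weighted average bin number, normalised to beads per bin, excluding low-abundance sequences.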

**Q.** Which AmyQ secretion efficiency does the source give for MNKPTKLFSTLALAAGMTLIAAAAGGAGTIHAQQP here?
**A.** 1.83

**Q.** How did the AmyQ secretion efficiency turn out when MRGKSAVLLSLIMLIAGFLITASFPTVTGPPFSFSFQM was run?
**A.** 8.88

**Q.** MNLRKILLSSALSLGMLVSAAPVLYTSS was tested. Which AmyQ secretion efficiency did it give?
**A.** 7.31

**Q.** MRKRLFRVCFLAALIMAFTLPNSVYAQKP was tested. Which AmyQ secretion efficiency did it give?
**A.** 2.73

**Q.** How did the AmyQ secretion efficiency turn out when MFKKHTISLLIIFLLASAVLAKPIERHTV was run?
**A.** 5.58

**Q.** MKKKIVAGLAVSAVVGAEAKTI was tested. Which AmyQ secretion efficiency did it give?
**A.** 8.76

**Q.** For MFKKLLLATSALTFSLSLVLEEDDHAKAQEV, which AmyQ secretion efficiency is on record?
**A.** 3.32

**Q.** With MKRKLLSSLAISASAPTASFAAES as the sequence, how does the AmyQ secretion efficiency read?
**A.** 7.94

**Q.** For MNLRKILLSSALSLGMLVSAAPVLGTSS, which AmyQ secretion efficiency is on record?
**A.** 4.45

**Q.** How did the AmyQ secretion efficiency turn out when MRKKCSVCLWILVLLLSCDSGKSAYAATS was run?
**A.** 3.15

**Q.** MKWMCKKCCKKVLLAGGAAQAEAV was tested. Which AmyQ secretion efficiency did it give?
**A.** 7.14

**Q.** Which AmyQ secretion efficiency does the source give for MKRLLVSLRVWMVFLMNWVTPDRKTNAAAVY here?
**A.** 6.68

**Q.** Which AmyQ secretion efficiency does the source give for MLCVMMLLFSAIASFPVSRQAKDQ here?
**A.** 7.53

**Q.** Which AmyQ secretion efficiency does the source give for MKVPKTMLKRTAAGLLLSLTATSVSAHYV here?
**A.** 4.94

**Q.** MRNLTKTSLLLAGLCTAAQMVFVTHASAADE was tested. Which AmyQ secretion efficiency did it give?
**A.** 2.81

**Q.** MAIIIAIIAAVIVIAALITFNVLNASPG was tested. Which AmyQ secretion efficiency did it give?
**A.** 6.68

**Q.** With MKKRKRRNFKRFIAAFLVLALMISLVPADILAKST as the sequence, how does the AmyQ secretion efficiency read?
**A.** 1.87

**Q.** With MKKTIMSFVAVAALSTTAFGAHGVFPASASAKEI as the sequence, how does the AmyQ secretion efficiency read?
**A.** 3.09

**Q.** Which AmyQ secretion efficiency does the source give for MLCVMMLLFSAIASFPVSASATAQAKDQ here?
**A.** 5.05

**Q.** Which AmyQ secretion efficiency does the source give for MKRTTNLTMLCLWFTVFSLFLVLLPGKALGAVD here?
**A.** 4.04

**Q.** With MRKKRVITCVMAASLTLGSLLPAGYASTKED as the sequence, how does the AmyQ secretion efficiency read?
**A.** 2.82

**Q.** How did the AmyQ secretion efficiency turn out when MKKLLAAGIIGLLTVSIASPAFAAEK was run?
**A.** 2.44

**Q.** How did the AmyQ secretion efficiency turn out when MKRLFMKSMASLVLFAVVFVFAVKGAPAKAETH was run?
**A.** 2

**Q.** How did the AmyQ secretion efficiency turn out when MHLIRAKGAVCLAVVLIAGCRFNEDQHQAEGENT was run?
**A.** 6.02

**Q.** For MFKKHQRRQRIIFLLASAVLAKPIEAHTV, which AmyQ secretion efficiency is on record?
**A.** 6.33

**Q.** With MKRKKLCVMMLLFSAIASFPVSAQAKDQ as the sequence, how does the AmyQ secretion efficiency read?
**A.** 2.65

**Q.** MTMLRKKGRWSLLLCIIPLFAFTVIASGKEV was tested. Which AmyQ secretion efficiency did it give?
**A.** 6.17

**Q.** Which AmyQ secretion efficiency does the source give for MKKAFILSAAAAVGLFTFGGVQQSSAKEL here?
**A.** 4.21

**Q.** Which AmyQ secretion efficiency does the source give for MKRLFMKASLVLFAVVFVFAVKGAPAKGETH here?
**A.** 2.19

**Q.** Which AmyQ secretion efficiency does the source give for MKSKWMSGLLLVAVGFSFTQVMTHAGET here?
**A.** 7.1

**Q.** Which AmyQ secretion efficiency does the source give for MKLKKRVSMFLVALTMCGGLFVTAAKAVKT here?
**A.** 4.92

**Q.** MMKKQVMLALTAAAGLGLTALHSAPAAKAAPL was tested. Which AmyQ secretion efficiency did it give?
**A.** 2.65

**Q.** MKSKWMRQKRLVAVGFSFTQVMVHAGET was tested. Which AmyQ secretion efficiency did it give?
**A.** 8.54

**Q.** With MKKVGLLAGCLAAGGFSYNAFATEN as the sequence, how does the AmyQ secretion efficiency read?
**A.** 6.86

**Q.** For MKNMSCKLVVSVTLFFSFLTIGPLAHAQNR, which AmyQ secretion efficiency is on record?
**A.** 1.47

**Q.** How did the AmyQ secretion efficiency turn out when MKLSVKIAGVLTVAAAAMTAKMYATAADD was run?
**A.** 6.81

**Q.** MKLRKVLTGSVLSLVSASPAFATSP was tested. Which AmyQ secretion efficiency did it give?
**A.** 3.59

**Q.** For MRKKHQTISLLIIFLLASAVLAKPIEAHTV, which AmyQ secretion efficiency is on record?
**A.** 2.69

**Q.** For MGLGKKLSVAVAASFMSLSISLFVVQAAEG, which AmyQ secretion efficiency is on record?
**A.** 3.73

**Q.** How did the AmyQ secretion efficiency turn out when MFNRLFRVCFLAALIMAFTLPNSQYAQKP was run?
**A.** 7.49

**Q.** For MKQGKFSKRLILLLMLTLVVAPKEKAEAASS, which AmyQ secretion efficiency is on record?
**A.** 1.59

**Q.** MKKRLIAPMLLSAASLAFFAMSGSKQAAAY was tested. Which AmyQ secretion efficiency did it give?
**A.** 3.82

**Q.** For MKLSVKFLFIAGVLTVAAAAMTAKMYATAKGN, which AmyQ secretion efficiency is on record?
**A.** 4.51

**Q.** Which AmyQ secretion efficiency does the source give for MKRITINIKRRKRRAAVISLTGTAEAAEK here?
**A.** 7.96

**Q.** For MGTFSTASILLLGILCSAAVFLIGAPSRALGAEV, which AmyQ secretion efficiency is on record?
**A.** 2.99

**Q.** Which AmyQ secretion efficiency does the source give for MKLSVKIAGVLTVAAAAMDDEDDEATAKGN here?
**A.** 7.46

**Q.** For MKRFLIGAGVAASGWFIADHQTHSQEM, which AmyQ secretion efficiency is on record?
**A.** 6.73

**Q.** Which AmyQ secretion efficiency does the source give for MRGKSAVLLSLIMLIAGFLINFSFQM here?
**A.** 6.91

**Q.** Which AmyQ secretion efficiency does the source give for MRPVFPLILSAVLFLSCFFGARQTEASPSKR here?
**A.** 2.1

**Q.** Which AmyQ secretion efficiency does the source give for MTKKAWFLPLVCVLLISGWLAPAASASDQTT here?
**A.** 2.72

**Q.** Which AmyQ secretion efficiency does the source give for MKKKIVAGLAVSAVVDEDEEAAPAEAKTI here?
**A.** 5.93

**Q.** With MKKRLIAPMLLSAASLAFFAMSGSAQQAAY as the sequence, how does the AmyQ secretion efficiency read?
**A.** 8.53

**Q.** How did the AmyQ secretion efficiency turn out when MKLKSKLLLSCLALSTVFVATTIANIPTH was run?
**A.** 5.95

**Q.** MPGKSAVLLSLIMLIAGFLISFSFQM was tested. Which AmyQ secretion efficiency did it give?
**A.** 7.65

**Q.** With MTMLRKIIGWILLLCIIPLFAFTVIASGATD as the sequence, how does the AmyQ secretion efficiency read?
**A.** 6.31

**Q.** For MKRFLIGAGVAAVILSGWFIADHQTHVQEM, which AmyQ secretion efficiency is on record?
**A.** 6.76

**Q.** MPYLKRVLLLLVTGLFMSLFAVTATASQQTG was tested. Which AmyQ secretion efficiency did it give?
**A.** 1.51

**Q.** For MRIFKKTYSQQGQTFLIATVNVNTAHAAID, which AmyQ secretion efficiency is on record?
**A.** 8.8

**Q.** MKVLLSALLLLLFAFEPSASEKKL was tested. Which AmyQ secretion efficiency did it give?
**A.** 5.89

**Q.** How did the AmyQ secretion efficiency turn out when MKKRLIAPMLLSAASLAFFAMSGSAQIAAY was run?
**A.** 8.39

**Q.** MKSCKQLIVCSLAAILLLIPSVSFAADD was tested. Which AmyQ secretion efficiency did it give?
**A.** 2.66

**Q.** MLCVMMLLFSAIASFPVSFQAKDQ was tested. Which AmyQ secretion efficiency did it give?
**A.** 8.56

**Q.** How did the AmyQ secretion efficiency turn out when MKNMSCKLVVSVTLFFSFLTAHAQNS was run?
**A.** 6.96

**Q.** For MKLKSKLLLSCLALSTVFVATTIANHPTH, which AmyQ secretion efficiency is on record?
**A.** 4.89

**Q.** Which AmyQ secretion efficiency does the source give for MGMLFKIIGWILLLCIIPLFAFTVIASGKEV here?
**A.** 2.66

**Q.** How did the AmyQ secretion efficiency turn out when MKKQIITATTAVVLGSTLFAGAAAVASAQSI was run?
**A.** 3.9

**Q.** For MKKWIYVRKKRSIAGIGGFSVHAASS, which AmyQ secretion efficiency is on record?
**A.** 7.24

**Q.** For MKNMSCKLVVSVTLFFSFLTIGPLCHAQNS, which AmyQ secretion efficiency is on record?
**A.** 1.32

**Q.** How did the AmyQ secretion efficiency turn out when MKKRFSLIMMTGLLFGLTSPTFAAEK was run?
**A.** 3.56

**Q.** For MPIKKKVMMCLAVTLVFGSMSFPTLTNKGGFKE, which AmyQ secretion efficiency is on record?
**A.** 7.01

**Q.** For MKKTIMSFVAVAALSTTAFGAHASSKEI, which AmyQ secretion efficiency is on record?
**A.** 3.17

**Q.** MPYLKRVLLLLVTGLFMSLFAVTATESAQTG was tested. Which AmyQ secretion efficiency did it give?
**A.** 4.4

**Q.** How did the AmyQ secretion efficiency turn out when MKKAAAVLLSLGLVFVFVYGAGHVAEAKTK was run?
**A.** 2.4

**Q.** How did the AmyQ secretion efficiency turn out when MKLWMRKTQKGLFTIVTFGLVSPPAALMADKP was run?
**A.** 5.07

**Q.** With MRGKSAVLLSLIMLIAGFLIWFSFQM as the sequence, how does the AmyQ secretion efficiency read?
**A.** 7.55

**Q.** For MRSYIKGTGRCKLGLILFVPTALADNS, which AmyQ secretion efficiency is on record?
**A.** 6.59

**Q.** For MKKLIMMTGLLFGLTSPAFAAEK, which AmyQ secretion efficiency is on record?
**A.** 2.43

**Q.** For MKKRLIAPMLLSAASLAFFAMSGSYQAAAY, which AmyQ secretion efficiency is on record?
**A.** 6.45

**Q.** With MLNGIISFLLVSFVLFFALSTGITGVQAAPA as the sequence, how does the AmyQ secretion efficiency read?
**A.** 3.09

**Q.** MKRLLSTLLIGIMLLTFAPSAFAAQK was tested. Which AmyQ secretion efficiency did it give?
**A.** 1.73

**Q.** For MKLKKRVSMFLVALTMCGGLFVTPAKYVKT, which AmyQ secretion efficiency is on record?
**A.** 5.18

**Q.** How did the AmyQ secretion efficiency turn out when MKRFSTLLLGILCSAAVFLIGAPSRALGAEV was run?
**A.** 2.96

**Q.** With MRGKSAVLLSLIMLIAGFLISFYFQM as the sequence, how does the AmyQ secretion efficiency read?
**A.** 7.22

**Q.** With MGLGKKLSVAVAASFMSLSISLPGSQAAEG as the sequence, how does the AmyQ secretion efficiency read?
**A.** 2.3

**Q.** How did the AmyQ secretion efficiency turn out when MKKELLASLVLCLSLSPLVSTNEVFAAEE was run?
**A.** 2.07

**Q.** Which AmyQ secretion efficiency does the source give for MKKCKRRKTTIALILSLSTNAFAKNT here?
**A.** 7.38

**Q.** With MKKIMSAFVGMVLLTIFCFSPQASAADD as the sequence, how does the AmyQ secretion efficiency read?
**A.** 3.32

**Q.** MKRKKVLLSALLLLLFAFEPSASGKKL was tested. Which AmyQ secretion efficiency did it give?
**A.** 2.93

**Q.** MRKNRILALFVLSLGLLKRKRKKVSAASK was tested. Which AmyQ secretion efficiency did it give?
**A.** 6.69

**Q.** For MKKLLAAGIIGLSIASPSFAAEK, which AmyQ secretion efficiency is on record?
**A.** 4.78

**Q.** Which AmyQ secretion efficiency does the source give for MLKKKWMTGGTKRCLAAGGFSYNAFATEN here?
**A.** 7.54

**Q.** Which AmyQ secretion efficiency does the source give for MKSKWMSGLLLVAVGFSFRKKKKKVHAGET here?
**A.** 7.2

**Q.** Which AmyQ secretion efficiency does the source give for MKKQIITATTAVVLGSTLFAGADSAQSI here?
**A.** 3.56

**Q.** MKRMIVRMTLPLLIVCLAFSSFSASARCASE was tested. Which AmyQ secretion efficiency did it give?
**A.** 4.35

**Q.** MLKRTSFVSSLFISSAVLLSILEDDDDDAHAQSA was tested. Which AmyQ secretion efficiency did it give?
**A.** 5.08

**Q.** Which AmyQ secretion efficiency does the source give for MKRMIVRMTLPLLIVCLAFSTSFSASARAASE here?
**A.** 2.38

Source: the supplement of paper PMC9942255
